The results in this text go back to the Immune Epitope Database (IEDB).

One experiment has as its target HLA-A*02:06. Put plainly: IEDB peptide-MHC binding, purified MHC/competitive/radioactivity; filed as Kd, often an IC50 or EC50 that approximates it; ≥ and ≤ were set here for values at or beyond the usual limits of such assays.
The next experiment deals with HLA-A*02:02. The description is as above.
In the next experiment the target is HLA-A*02:03. Described as above.
For the next experiment, the target named is HLA-A*03:01. Kind of experiment: IEDB peptide-MHC binding, purified MHC/direct/fluorescence; filed as Kd, often an IC50 or EC50 that approximates it; ≥ and ≤ were set here for values at or beyond the usual limits of such assays.
For another experiment, the target named is HLA-A*69:01. The experiment is described as above.
The next experiment concerns the target HLA-A*02:01. Described as above.
Where [1] appears, read: source organism: Vaccinia virus WR.
Where [2] appears, read: source organism: SARS coronavirus Tor2.
Setting [3] is: source organism: Burkholderia ambifaria AMMD.
Where [4] appears, read: source organism: Cryptosporidium parvum.

As for FVDTMSIYIA, the values for the Kd with HLA-A*02:06 (setting [1]), with HLA-A*02:02 (setting [1]) and with HLA-A*02:03 (setting [1]) were 1100 nM, 154 nM and 2390 nM, respectively.

Regarding SIRCVKYLL, the Kd (usually the concentration at which binding is half-saturated) was determined as 2880 nM with HLA-A*02:06 (setting [1]), 107 nM with HLA-A*02:02 (setting [1]) and 55.7 nM with HLA-A*02:03 (setting [1]).

Consider SVGTGILFM, for which the figures for the Kd with HLA-A*02:06 (setting [1]), with HLA-A*02:02 (setting [1]) and with HLA-A*02:03 (setting [1]) were at least 20700 nM, 1090 nM and 2250 nM, respectively.

With RAAIDRQVSV, the equilibrium dissociation constant (Kd) in the experiment with HLA-A*02:06 (setting [1]) amounted to 212 nM; in the experiment with HLA-A*02:02 (setting [1]) it was 626 nM; with HLA-A*02:03 (setting [1]), 40.8 nM.

On to MICCDSRIVV, for which the Kd with HLA-A*02:06 (setting [1]) came out at 51.9 nM; in the experiment with HLA-A*02:02 (setting [1]), 665 nM; with HLA-A*02:03 (setting [1]) it was 392 nM.

Consider KTIISEEYL, for which the Kd with HLA-A*02:06 (setting [1]) turned out to be 150 nM; in the experiment with HLA-A*02:02 (setting [1]), 916 nM; with HLA-A*02:03 (setting [1]), 1220 nM.

With QTLISLNSM, the values for the Kd in the experiment with HLA-A*02:06 (setting [1]), with HLA-A*02:02 (setting [1]) and with HLA-A*02:03 (setting [1]) were 7510 nM, 19400 nM and at least 39300 nM, respectively.

Consider FIISTLNKI, for which the figures for the Kd with HLA-A*02:06 (setting [1]), in the experiment with HLA-A*02:02 (setting [1]) and with HLA-A*02:03 (setting [1]) were 5.84 nM, 1.65 nM and 0.418 nM, respectively.

Take FLLFLVLIML: the Kd stood at 2920 nM with HLA-A*02:06 (setting [2]), 1570 nM with HLA-A*02:02 (setting [2]) and 1380 nM with HLA-A*02:03 (setting [2]).

Turning to NACDKHNKT, the Kd in the experiment with HLA-A*02:06 (setting [1]) turned out to be 18600 nM; in the experiment with HLA-A*02:02 (setting [1]), 17900 nM; with HLA-A*02:03 (setting [1]), 9250 nM.

Consider TLISSDGARV, for which the Kd worked out at 1220 nM with HLA-A*02:06 (setting [1]), 142 nM with HLA-A*02:02 (setting [1]) and 133 nM in the experiment with HLA-A*02:03 (setting [1]).

Take LLLEWLAEVV: the values for the Kd with HLA-A*02:06 (setting [2]), in the experiment with HLA-A*02:02 (setting [2]) and with HLA-A*02:03 (setting [2]) were 0.525 nM, 0.31 nM and 0.813 nM, respectively.

As for KYLYLWSFK, in the experiment with HLA-A*03:01 (source organism: Clostridium botulinum), the Kd stood at 167 nM.

In the case of TLYNHHRQY, in the experiment with HLA-A*03:01 (source organism: Burkholderia mallei), the Kd amounted to 46 nM.

For the sequence ELTNKKYRCM, the Kd is at least 69800 nM in the experiment with HLA-A*02:06 (setting [1]), at least 70000 nM with HLA-A*02:02 (setting [1]) and at least 70400 nM in the experiment with HLA-A*02:03 (setting [1]).

SMYVIPDELI: the Kd in the experiment with HLA-A*02:06 (setting [1]) was 492 nM; with HLA-A*02:02 (setting [1]), 30.7 nM; in the experiment with HLA-A*02:03 (setting [1]) it was 114 nM.

In the case of FAFIDFSKST, the Kd in the experiment with HLA-A*02:06 (setting [1]) worked out at 1410 nM; with HLA-A*02:02 (setting [1]) it was 11800 nM; with HLA-A*02:03 (setting [1]) it was 2410 nM.

Consider GTSVIRSNI, for which the Kd is 1610 nM in the experiment with HLA-A*02:06 (setting [1]), 386 nM with HLA-A*02:02 (setting [1]) and 44.8 nM in the experiment with HLA-A*02:03 (setting [1]).

Regarding KASTISWMM, the Kd is 797 nM in the experiment with HLA-A*02:06 (setting [1]), 429 nM with HLA-A*02:02 (setting [1]) and 556 nM with HLA-A*02:03 (setting [1]).

As for YVIPDELIDV, the Kd was determined as 12.3 nM in the experiment with HLA-A*02:06 (setting [1]), 18.1 nM in the experiment with HLA-A*02:02 (setting [1]) and 13.9 nM in the experiment with HLA-A*02:03 (setting [1]).

Regarding YLNGGRRGY, the Kd with HLA-A*69:01 (setting [3]) and with HLA-A*02:01 (setting [3]) was at least 20000 nM in each case.

As for PLIISTDQDT, the Kd with HLA-A*02:06 (setting [1]) was at least 47400 nM; in the experiment with HLA-A*02:02 (setting [1]) it was at least 45000 nM; in the experiment with HLA-A*02:03 (setting [1]) it was at least 35600 nM.

In the case of PLPCQLMYAL, the Kd with HLA-A*02:06 (setting [1]) was found to be 9810 nM; with HLA-A*02:02 (setting [1]), 163 nM; in the experiment with HLA-A*02:03 (setting [1]), 8710 nM.

For the sequence HLMSDNPKA, the Kd with HLA-A*02:06 (setting [1]) turned out to be 523 nM; with HLA-A*02:02 (setting [1]), 56.9 nM; with HLA-A*02:03 (setting [1]) it was 279 nM.

In the case of TLVKSGLTEV, the Kd with HLA-A*02:06 (setting [1]) is 45.1 nM; in the experiment with HLA-A*02:02 (setting [1]), 64.1 nM; with HLA-A*02:03 (setting [1]), 2.93 nM.

As for RVTKRDESSI, the figures for the Kd in the experiment with HLA-A*02:06 (setting [1]), with HLA-A*02:02 (setting [1]) and with HLA-A*02:03 (setting [1]) were at least 22200 nM, 12300 nM and 10700 nM, respectively.

IISSKQYPA: the Kd in the experiment with HLA-A*02:06 (setting [1]) worked out at 1160 nM; with HLA-A*02:02 (setting [1]) it was 164 nM; in the experiment with HLA-A*02:03 (setting [1]) it was 612 nM.

For the sequence ATICLKNEGV, the Kd amounted to 42.5 nM in the experiment with HLA-A*02:06 (setting [1]), 436 nM with HLA-A*02:02 (setting [1]) and 70.9 nM with HLA-A*02:03 (setting [1]).

Consider KMFNSVGGA, for which the Kd with HLA-A*69:01 (setting [4]) is at least 20000 nM; with HLA-A*02:01 (setting [4]) it was 26 nM.

Turning to PTEMVDVSM, the results for the Kd with HLA-A*02:06 (setting [1]), with HLA-A*02:02 (setting [1]) and with HLA-A*02:03 (setting [1]) were at least 40200 nM, 10600 nM and at least 41300 nM, respectively.

On to IINSVSIIL, for which the Kd in the experiment with HLA-A*02:06 (setting [1]) is at least 25900 nM; with HLA-A*02:02 (setting [1]) it was 705 nM; in the experiment with HLA-A*02:03 (setting [1]), 2900 nM.

LANERYRSA: the equilibrium dissociation constant (Kd) with HLA-A*02:06 (setting [1]) is at least 77100 nM; with HLA-A*02:02 (setting [1]), at least 31300 nM; in the experiment with HLA-A*02:03 (setting [1]) it was 554 nM.

Turning to VTLFIDRGSI, the Kd turned out to be 3010 nM with HLA-A*02:06 (setting [1]), 3830 nM with HLA-A*02:02 (setting [1]) and 2250 nM in the experiment with HLA-A*02:03 (setting [1]).

Consider DLDKVYEIL, for which the Kd was at least 53700 nM in the experiment with HLA-A*02:06 (setting [1]), 19600 nM with HLA-A*02:02 (setting [1]) and at least 26300 nM with HLA-A*02:03 (setting [1]).

For FTEGKINPLL, the dissociation constant (Kd) was found to be 85.8 nM in the experiment with HLA-A*02:06 (setting [1]), 150 nM in the experiment with HLA-A*02:02 (setting [1]) and 595 nM with HLA-A*02:03 (setting [1]).

Regarding LLLENKSLTI, the results for the Kd with HLA-A*02:06 (setting [1]), with HLA-A*02:02 (setting [1]) and in the experiment with HLA-A*02:03 (setting [1]) were 1320 nM, 982 nM and 985 nM, respectively.

As to MIYDLNAVTT, the Kd with HLA-A*02:06 (setting [1]) was determined as 429 nM; with HLA-A*02:02 (setting [1]), 897 nM; with HLA-A*02:03 (setting [1]), 477 nM.

Regarding YTKHSMLTNA, the Kd with HLA-A*02:06 (setting [1]) was 7340 nM; with HLA-A*02:02 (setting [1]), 3900 nM; with HLA-A*02:03 (setting [1]), 141 nM.
